Broadly, the Kd is the concentration at which binding is half-saturated.

The record followed here is publication PMC9226502, “MutL binds to 3′ resected DNA ends and blocks DNA polymerase access”.

Data set [1] deals with T1, MutL WT (Escherichia coli, UniProt P23367 1-615). In words: fluorescence anisotropy; 3 mM ATP; FA: 20 mM HEPES pH 7.5, 150 mM NaCl, 5 mM MgCl2, 0.08% Tween 20, 20% glycerol, 2 mM DTT, 5 nM DNA, 25 C; BLI: 25 mM HEPES pH 7.5, 150 mM NaCl, 5 mM MgCl2, 2 mM. The settings on record: protein: recombinant, (HisTrap purified), chain copies: 2.
The target in data set [2] is T1, MutL WT. The data set is described as follows: cryo-EM structure (3.7 A); 3 mM AMPPNP, 5 mM Mg2+; FA: 20 mM HEPES pH 7.5, 150 mM NaCl, 5 mM MgCl2, 0.08% Tween 20, 20% glycerol, 2 mM DTT, 5 nM DNA, 25 C; BLI: 25 mM HEPES pH 7.5, 150 mM NaCl, 5 mM MgCl2, 2 mM. The settings on record: protein: recombinant; (HisTrap purified); chain copies: 2; 21 bp duplex, 5' overhang 21 nt on template.

Another data set deals with MutL H270A (Escherichia coli, UniProt P23367 1-615, H270A). In words: fluorescence anisotropy; AMPPNP (1 mM, Fig 3C); FA: 20 mM HEPES pH 7.5, 150 mM NaCl, 5 mM MgCl2, 0.08% Tween 20, 20% glycerol, 2 mM DTT, 5 nM DNA, 25 C; BLI: 25 mM HEPES pH 7.5, 150 mM NaCl, 5 mM MgCl2, 2 mM. The settings on record: protein: recombinant; (HisTrap purified); chain copies: 2; label: 5'-FAM on primer S8; 15 bp duplex, 5' overhang 16 nt on template (recessed primer 3' end).

In another data set the target is MutL H270A+H319A (Escherichia coli, UniProt P23367 1-615, H270A;H319A). Described as above. The note with it: protein: recombinant; (HisTrap purified); chain copies: 2; label: 5'-FAM on primer S8; 15 bp duplex, 5' overhang 16 nt on template (recessed primer 3' end).
In the next data set the target is MutL H319A (Escherichia coli, UniProt P23367 1-615, H319A). Described as above. The note with it: protein: recombinant; (HisTrap purified); chain copies: 2; label: 5'-FAM on primer S8; 15 bp duplex, 5' overhang 16 nt on template (recessed primer 3' end).
Data set [3] deals with T1, MutL WT. In words: fluorescence anisotropy; 3 mM ATP (Table 2 gives 0.64 uM); FA: 20 mM HEPES pH 7.5, 150 mM NaCl, 5 mM MgCl2, 0.08% Tween 20, 20% glycerol, 2 mM DTT, 5 nM DNA, 25 C; BLI: 25 mM HEPES pH 7.5, 150 mM NaCl, 5 mM MgCl2, 2 mM. The settings on record: protein: recombinant; (HisTrap purified); chain copies: 2; label: 5'-FAM on primer S8; 15 bp duplex, 5' overhang 16 nt on template (recessed primer 3' end). A general note: In fluorescence polarisation assays a small probe gives low polarisation when free and higher when bound to something large.

Data set [4] deals with T1, MutL WT. In words: fluorescence anisotropy; AMPPNP (3 mM; Fig 3C legend 1 mM); FA: 20 mM HEPES pH 7.5, 150 mM NaCl, 5 mM MgCl2, 0.08% Tween 20, 20% glycerol, 2 mM DTT, 5 nM DNA, 25 C; BLI: 25 mM HEPES pH 7.5, 150 mM NaCl, 5 mM MgCl2, 2 mM. The settings on record: protein: recombinant; (HisTrap purified); chain copies: 2; label: 5'-FAM on primer S8; 15 bp duplex, 5' overhang 16 nt on template (recessed primer 3' end).

B1: blunt-ended DNA (dsDNA)
DNA 1: AAGTGTCTGTCGTTTT
DNA 2: AAAACGACAGACACTT
As for B1, in the data set with MutL WT [1] (label: 3'-FAM on S7), the binding result is reported as “no binding”.

B2: cryo-EM 3' resected DNA (dsDNA)
DNA 1: AAACAGGCTTAGGCTGGAGGATCAGCTTAGCTTAGAGTCATC
DNA 2: GATGACTCTAAGCTAAGCTGA
Consider B2, for which the binding result in the data set with MutL WT [2] is recorded as “binds”.

B3: 3' resected primer/template junction (dsDNA)
DNA 1: AAGTGTCTGTCGTTTTAAGGACGAAGGACTC
DNA 2: GAGTCCTTCGTCCTT
Regarding B3, the Kd with MutL H270A came to 1.59 ± 0.23 µM; in the data set with MutL H319A it was 4.51 ± 1.18 µM; in the data set with MutL WT [3] it was 0.65 ± 0.32 µM; with MutL WT [4], 0.29 ± 0.12 µM. Further, the binding result with MutL H270A+H319A is given as “no binding”.

B4: 5' resected primer/template junction (dsDNA)
DNA 1: B3 DNA 1
DNA 2: AAAACGACAGACACTT
B4: in the data set with MutL WT [1] (label: 3'-FAM on primer S7), the binding result is “no binding”.
